From article PMC5338925, “Human Nup98 regulates the localization and activity of DExH/D-box helicase DHX9” (eLife, 2017)

T1: GST-Nup98^1–863 (human, UniProt P52948-4 1-863)
T1 construct: Nup98, human, residues 1-863; Held on glutathione magnetic agarose beads by its GST; also called GST-Nup98 (bead halo bait); source: purified recombinant protein (E. coli BL21-CodonPlus(DE3), glutathione-Sepharose 4B)
T1 sequence (looked up): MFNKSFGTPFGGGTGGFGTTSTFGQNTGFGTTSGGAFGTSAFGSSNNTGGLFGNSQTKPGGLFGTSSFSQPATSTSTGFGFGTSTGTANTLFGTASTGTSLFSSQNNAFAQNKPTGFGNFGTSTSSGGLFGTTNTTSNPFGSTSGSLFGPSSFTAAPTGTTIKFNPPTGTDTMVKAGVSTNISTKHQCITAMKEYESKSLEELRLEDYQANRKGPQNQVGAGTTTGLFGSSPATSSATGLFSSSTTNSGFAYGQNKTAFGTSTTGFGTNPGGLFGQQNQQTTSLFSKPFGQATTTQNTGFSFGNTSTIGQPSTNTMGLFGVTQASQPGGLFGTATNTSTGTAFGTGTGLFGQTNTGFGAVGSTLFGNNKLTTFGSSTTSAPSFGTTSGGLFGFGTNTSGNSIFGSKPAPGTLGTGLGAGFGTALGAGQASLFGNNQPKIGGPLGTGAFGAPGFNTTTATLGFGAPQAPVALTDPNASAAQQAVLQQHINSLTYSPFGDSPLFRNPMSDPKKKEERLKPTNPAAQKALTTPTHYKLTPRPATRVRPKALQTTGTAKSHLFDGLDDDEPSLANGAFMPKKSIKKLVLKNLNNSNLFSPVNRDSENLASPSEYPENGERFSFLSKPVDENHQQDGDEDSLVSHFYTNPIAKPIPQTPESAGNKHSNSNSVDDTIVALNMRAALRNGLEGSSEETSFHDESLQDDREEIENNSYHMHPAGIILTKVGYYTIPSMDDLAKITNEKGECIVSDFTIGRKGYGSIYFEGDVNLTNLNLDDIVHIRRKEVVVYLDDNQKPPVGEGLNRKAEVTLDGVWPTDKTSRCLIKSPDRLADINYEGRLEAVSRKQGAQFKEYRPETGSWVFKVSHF


Assays:
GST-DHX9 (human) = GST-DHX9 (human) (UniProt Q08211)
GST-Nup98^1–863 = target: T1, GST-Nup98^1–863; assay: bead halo assay; GST-Nup98 1-863 held on glutathione magnetic agarose beads (bait); DHX9 domains with C-terminal eGFP (prey) detected by fluorescence microscopy; PBS-T, 10 min, 4 °C; pre-treated with RNase A, poly I:C RNA or buffer alone; conditions: both partners purified

GST-Nup98^1–920, sequence (P52948 other isoform, or with tags, fused parts or gaps): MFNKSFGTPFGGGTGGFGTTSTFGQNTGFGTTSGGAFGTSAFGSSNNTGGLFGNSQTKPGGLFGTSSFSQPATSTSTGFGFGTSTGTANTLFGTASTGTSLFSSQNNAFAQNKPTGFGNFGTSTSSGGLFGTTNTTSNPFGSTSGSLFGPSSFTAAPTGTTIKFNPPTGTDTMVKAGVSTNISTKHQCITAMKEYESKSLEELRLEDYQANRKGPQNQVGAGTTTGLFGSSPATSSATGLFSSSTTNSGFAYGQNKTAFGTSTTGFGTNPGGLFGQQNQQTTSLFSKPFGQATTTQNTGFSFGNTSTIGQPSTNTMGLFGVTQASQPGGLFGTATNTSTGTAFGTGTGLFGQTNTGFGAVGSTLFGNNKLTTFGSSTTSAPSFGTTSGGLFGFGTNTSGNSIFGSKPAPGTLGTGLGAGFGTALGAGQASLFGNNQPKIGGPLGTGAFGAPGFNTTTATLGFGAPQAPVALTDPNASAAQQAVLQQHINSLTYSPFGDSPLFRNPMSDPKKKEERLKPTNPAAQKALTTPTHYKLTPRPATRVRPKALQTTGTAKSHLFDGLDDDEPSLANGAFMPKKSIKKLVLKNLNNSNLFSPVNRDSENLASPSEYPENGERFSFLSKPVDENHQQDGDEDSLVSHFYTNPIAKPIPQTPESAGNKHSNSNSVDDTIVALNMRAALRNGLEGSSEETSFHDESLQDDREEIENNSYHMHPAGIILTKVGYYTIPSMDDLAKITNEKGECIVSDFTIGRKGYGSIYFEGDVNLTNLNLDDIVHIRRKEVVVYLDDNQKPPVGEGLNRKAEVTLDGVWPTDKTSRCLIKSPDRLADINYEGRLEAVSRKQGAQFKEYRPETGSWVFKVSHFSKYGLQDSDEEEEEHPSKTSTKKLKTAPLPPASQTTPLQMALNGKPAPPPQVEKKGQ

Row | ATPase activity (ATP hydrolysis rate) of GST-DHX9 with excess RNA (poly I:C) and increasing concentrations of GST-Nup98 (GST-DHX9 (human)) [fold] | binding result (GST-Nup98^1–863) | Molecule
1 | 5 | – | GST-Nup98^1–920 (from UniProt P52948-4 1-920) (natural protein)
2 | – | binds | DHX9 1–380 tagged with eGFP (domain or fragment, human, UniProt Q08211 1-380, looked up, also called N-terminal region (residues 1–380); N-terminal domain of DHX9-GFP; source: purified recombinant protein; not shown: eGFP, C-terminal, kept) MGDVKNFLYAWCGKRKMTPSYEIRAVGNKNRQKFMCEVQVEGYNYTGMGNSTNKKDAQSNAARDFVNYLVRINEIKSEEVPAFGVASPPPLTDTPDTTANAEGDLPTTMGGPLPPHLALKAENNSEVGASGYGVPGPTWDRGANLKDYYSRKEEQEVQATLESEEVDLNAGLHGNWTLENAKARLNQYFQKEKIQGEYKYTQVGPDHNRSFIAEMTIYIKQLGRRIFAREHGSNKKLAAQSCALSLVRQLYHLGVVEAYSGLTKKKEGETVEPYKVNLSQDLEHQLQNIIQELNLEILPPPEDPSVPVALNIGKLAQFEPSQRQNQVGVVPWSPPQSNWNPWTSSNIDEGPLAFATPEQISMDLKNELMYQLEQDHDLQA
3 | – | binds | DHX9 821–1270 tagged with eGFP (domain or fragment, human, UniProt Q08211 821-1270, looked up, also called C-terminal segment (residues 821–1270); C-terminal domain of DHX9-GFP; source: purified recombinant protein; not shown: eGFP, C-terminal, kept) IEPPPLDAVIEAEHTLRELDALDANDELTPLGRILAKLPIEPRFGKMMIMGCIFYVGDAICTIAAATCFPEPFINEGKRLGYIHRNFAGNRFSDHVALLSVFQAWDDARMGGEEAEIRFCEHKRLNMATLRMTWEAKVQLKEILINSGFPEDCLLTQVFTNTGPDNNLDVVISLLAFGVYPNVCYHKEKRKILTTEGRNALIHKSSVNCPFSSQDMKYPSPFFVFGEKIRTRAISAKGMTLVTPLQLLLFASKKVQSDGQIVLVDDWIKLQISHEAAACITGLRAAMEALVVEVTKQPAIISQLDPVNERMLNMIRQISRPSAAGINLMIGSTRYGDGPRPPKMARYDNGSGYRRGGSSYSGGGYGGGYSSGGYGSGGYGGSANSFRAGYGAGVGGGYRGVSRGGFRGNSGGDYRGPSGGYRGSGGFQRGGGRGAYGTGYFGQGRGGGGY
